Source: patent CN112794900A (2ND XIANGYA HOSPITAL CENTRAL SOUTH UNIV, dated 2021)

How the values were obtained:
[1] = biological target: T1, cBIN1 Isoform II3 (cBIN1 exon 1-12&18-20) (UniProt O00499-7 1-439); test: ELISA, antigen coated at 0.1μg/well
T1 construct: domain: cBIN1 exon 1-12&18-20; Tags are unknown; also called 缺失exon13的cBIN1 Isoform II3蛋白
T1 sequence (looked up): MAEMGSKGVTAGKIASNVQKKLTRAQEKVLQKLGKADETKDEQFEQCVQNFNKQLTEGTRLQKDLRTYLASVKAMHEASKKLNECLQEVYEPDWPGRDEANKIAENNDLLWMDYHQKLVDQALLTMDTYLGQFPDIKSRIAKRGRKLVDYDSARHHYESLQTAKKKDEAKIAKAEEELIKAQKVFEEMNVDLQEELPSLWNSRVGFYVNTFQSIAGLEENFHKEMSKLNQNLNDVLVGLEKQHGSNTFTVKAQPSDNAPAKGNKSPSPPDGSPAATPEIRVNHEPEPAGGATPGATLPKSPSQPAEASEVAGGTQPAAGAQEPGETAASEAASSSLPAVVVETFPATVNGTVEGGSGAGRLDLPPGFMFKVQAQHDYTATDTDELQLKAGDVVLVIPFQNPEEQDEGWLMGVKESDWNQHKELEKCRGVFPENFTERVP

[2] = biological target: T2, cBIN1 Isoform II2 (cBIN1 exon1-13&18-20) (UniProt O00499-6 1-482); test: ELISA, antigen coated at 0.1μg/well, OD450
T2 construct: domain: cBIN1 exon1-13&18-20; tags are unknown; also called 含有exon13的cBIN1 Isoform II2蛋白
T2 sequence (looked up): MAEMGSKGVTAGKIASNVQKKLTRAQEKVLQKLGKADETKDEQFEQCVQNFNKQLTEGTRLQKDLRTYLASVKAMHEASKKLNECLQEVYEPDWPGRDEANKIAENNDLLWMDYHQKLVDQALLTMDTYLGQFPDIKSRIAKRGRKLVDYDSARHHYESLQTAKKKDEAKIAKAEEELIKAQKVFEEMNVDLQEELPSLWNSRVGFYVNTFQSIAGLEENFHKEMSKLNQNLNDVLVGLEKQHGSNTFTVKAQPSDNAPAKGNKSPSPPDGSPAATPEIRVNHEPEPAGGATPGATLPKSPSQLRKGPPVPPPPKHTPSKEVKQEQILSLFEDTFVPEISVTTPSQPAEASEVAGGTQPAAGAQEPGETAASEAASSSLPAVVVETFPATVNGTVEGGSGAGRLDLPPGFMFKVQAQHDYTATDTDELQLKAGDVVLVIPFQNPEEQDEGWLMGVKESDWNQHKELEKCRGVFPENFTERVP

EC50 [2]: 0.058 µg/mL
B1: 鼠源抗体 8G1-D7-F5 (抗人源cBIN1 exon13抗体) (antibody, V domains shown)
VH: EVQLQQSGAELVRPGASVKLSCTTSGFNIKDSYMHWVKQRPEQGLEWIGRIDPEDDDAVYAPKFQDRATMTADTSSNTAYLHLSSLTSDDTAVYYCTTSTLVATPWFFDVWGTGTTVTVSS
VL: DIQMTQTTSSLSASLGDRVTISCSASQDINNYLNWYQQKPDGTVKLLIYYTSTLHSGVPSRFSGSGSGTDYSLTITNLEPEDFATYYCQQYTHNLPWTFGGGTKLEIK
notes: Mouse hybridoma antibody; The printed light chain FR3 may lack a leading G; also called cBIN1抗体
binding result [1]: no binding (tested: 10μg/ml起始浓度, 三倍稀释, 11个检测点)
